Results from patent US20050118638A1.
Like-named read-outs stand apart in the source and are kept apart here.

How the values were obtained:
[1] = molecular target: TSH receptor (detergent solubilised TSH receptor preparation) (UniProt P16473); experiment: TSHR coated tubes after serum NSF 26
[2] = molecular target: TSH receptor (detergent solubilised TSH receptor preparation) (UniProt P16473); experiment: TSHR coated tubes after serum NSF 10
[3] = molecular target: TSH receptor (detergent solubilised TSH receptor preparation) (UniProt P16473); experiment: TSHR coated tubes after serum G49
[4] = molecular target: TSH receptor (detergent solubilised TSH receptor preparation) (UniProt P16473); experiment: TSHR coated tubes after serum G24
[5] = molecular target: TSH receptor (detergent solubilised TSH receptor preparation) (UniProt P16473); experiment: TSHR coated tubes after serum G40
[6] = molecular target: TSH receptor (detergent solubilised TSH receptor preparation) (UniProt P16473); experiment: TSHR coated tubes after serum NSF 5
[7] = molecular target: TSH receptor (detergent solubilised TSH receptor preparation) (UniProt P16473); experiment: TSHR coated tubes after serum NSF 21
[8] = molecular target: TSH receptor (detergent solubilised TSH receptor preparation) (UniProt P16473); experiment: TSHR coated tubes after serum G23
[9] = molecular target: TSH receptor (detergent solubilised TSH receptor preparation) (UniProt P16473); experiment: TSHR coated tubes after serum G46
[10] = molecular target: TSH receptor (detergent solubilised TSH receptor preparation) (UniProt P16473); experiment: TSHR coated tubes after serum G28
[11] = molecular target: TSH receptor (detergent solubilised TSH receptor preparation) (UniProt P16473); experiment: TSHR coated tubes after serum G29
[12] = molecular target: TSH receptor (detergent solubilised TSH receptor preparation) (UniProt P16473); experiment: TSHR coated tubes after serum G36
[13] = molecular target: TSH receptor (detergent solubilised TSH receptor preparation) (UniProt P16473); experiment: TSHR coated tubes after serum NSF 16
[14] = molecular target: TSH receptor (detergent solubilised TSH receptor preparation) (UniProt P16473); experiment: TSHR coated tubes after serum G33
[15] = molecular target: TSH receptor (detergent solubilised TSH receptor preparation) (UniProt P16473); experiment: TSHR coated tubes after serum G27
[16] = molecular target: TSH receptor (detergent solubilised TSH receptor preparation) (UniProt P16473); experiment: TSHR coated tubes after serum G37
[17] = molecular target: TSH receptor (detergent solubilised TSH receptor preparation) (UniProt P16473); experiment: TSHR coated tubes after serum G39
[18] = molecular target: TSH receptor (detergent solubilised TSH receptor preparation) (UniProt P16473); experiment: TSHR coated tubes after serum G47
[19] = molecular target: TSH receptor (detergent solubilised TSH receptor preparation) (UniProt P16473); experiment: TSHR coated tubes after serum G45
[20] = molecular target: TSH receptor (detergent solubilised TSH receptor preparation) (UniProt P16473); experiment: TSHR coated tubes after serum G30
[21] = molecular target: TSH receptor (detergent solubilised TSH receptor preparation) (UniProt P16473); experiment: TSHR coated tubes after serum G34
[22] = molecular target: TSH receptor (detergent solubilised TSH receptor preparation) (UniProt P16473); experiment: TSHR coated tubes after serum G35
[23] = molecular target: TSH receptor (detergent solubilised TSH receptor preparation) (UniProt P16473); experiment: TSHR coated tubes after serum G50
[24] = molecular target: TSH receptor (detergent solubilised TSH receptor preparation) (UniProt P16473); experiment: TSHR coated tubes after serum NSF 18
[25] = molecular target: TSH receptor (detergent solubilised TSH receptor preparation) (UniProt P16473); experiment: TSHR coated tubes after serum NSF 4
[26] = molecular target: TSH receptor (detergent solubilised TSH receptor preparation) (UniProt P16473); experiment: TSHR coated tubes after serum NSF 17
[27] = molecular target: TSH receptor (detergent solubilised TSH receptor preparation) (UniProt P16473); experiment: TSHR coated tubes, healthy blood donor sera
[28] = molecular target: TSH receptor (detergent solubilised TSH receptor preparation) (UniProt P16473); experiment: TSHR coated tubes after serum G38
[29] = molecular target: TSH receptor (detergent solubilised TSH receptor preparation) (UniProt P16473); experiment: TSHR coated tubes after serum NSF 20
[30] = molecular target: TSH receptor (detergent solubilised TSH receptor preparation) (UniProt P16473); experiment: TSHR coated tubes after serum G31
[31] = molecular target: TSH receptor (detergent solubilised TSH receptor preparation) (UniProt P16473); experiment: TSHR coated tubes after serum G51
[32] = molecular target: TSH receptor (detergent solubilised TSH receptor preparation) (UniProt P16473); experiment: TSHR coated tubes after serum G44
[33] = molecular target: TSH receptor (detergent solubilised TSH receptor preparation) (UniProt P16473); experiment: TSHR coated tubes after serum G43
[34] = molecular target: TSH receptor (detergent solubilised TSH receptor preparation) (UniProt P16473); experiment: 125I-TSHR immunoprecipitation; competitor TRAb of serum K3
[35] = molecular target: TSH receptor (detergent solubilised TSH receptor preparation) (UniProt P16473); experiment: TSHR coated tubes, healthy blood donor sera; remark: listed apart in the source
[36] = molecular target: TSH receptor (detergent solubilised TSH receptor preparation) (UniProt P16473); experiment: TSHR coated tubes after serum G52
[37] = molecular target: TSH receptor (detergent solubilised TSH receptor preparation) (UniProt P16473); experiment: TSHR coated tubes after serum G26
[38] = molecular target: TSH receptor (detergent solubilised TSH receptor preparation) (UniProt P16473); experiment: TSHR coated tubes after serum G41
[39] = molecular target: TSH receptor (detergent solubilised TSH receptor preparation) (UniProt P16473); experiment: TSHR coated tubes after serum G25
[40] = molecular target: TSH receptor (detergent solubilised TSH receptor preparation) (UniProt P16473); experiment: TSHR coated tubes after serum NSF 22
[41] = molecular target: TSH receptor (detergent solubilised TSH receptor preparation) (UniProt P16473); experiment: TSHR coated tubes after serum G48
[42] = molecular target: TSH receptor (detergent solubilised TSH receptor preparation) (UniProt P16473); experiment: TSHR coated tubes after serum G32

Chain of TSH (thyrotrophin, thyroid stimulating hormone) (ligand) (P01223 21-132): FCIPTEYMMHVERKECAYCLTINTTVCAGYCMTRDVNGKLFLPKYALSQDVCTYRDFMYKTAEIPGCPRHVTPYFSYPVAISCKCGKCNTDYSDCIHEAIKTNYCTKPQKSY
Chain of TSH receptor (detergent solubilised TSH receptor preparation) (P16473 21-764 limits assumed): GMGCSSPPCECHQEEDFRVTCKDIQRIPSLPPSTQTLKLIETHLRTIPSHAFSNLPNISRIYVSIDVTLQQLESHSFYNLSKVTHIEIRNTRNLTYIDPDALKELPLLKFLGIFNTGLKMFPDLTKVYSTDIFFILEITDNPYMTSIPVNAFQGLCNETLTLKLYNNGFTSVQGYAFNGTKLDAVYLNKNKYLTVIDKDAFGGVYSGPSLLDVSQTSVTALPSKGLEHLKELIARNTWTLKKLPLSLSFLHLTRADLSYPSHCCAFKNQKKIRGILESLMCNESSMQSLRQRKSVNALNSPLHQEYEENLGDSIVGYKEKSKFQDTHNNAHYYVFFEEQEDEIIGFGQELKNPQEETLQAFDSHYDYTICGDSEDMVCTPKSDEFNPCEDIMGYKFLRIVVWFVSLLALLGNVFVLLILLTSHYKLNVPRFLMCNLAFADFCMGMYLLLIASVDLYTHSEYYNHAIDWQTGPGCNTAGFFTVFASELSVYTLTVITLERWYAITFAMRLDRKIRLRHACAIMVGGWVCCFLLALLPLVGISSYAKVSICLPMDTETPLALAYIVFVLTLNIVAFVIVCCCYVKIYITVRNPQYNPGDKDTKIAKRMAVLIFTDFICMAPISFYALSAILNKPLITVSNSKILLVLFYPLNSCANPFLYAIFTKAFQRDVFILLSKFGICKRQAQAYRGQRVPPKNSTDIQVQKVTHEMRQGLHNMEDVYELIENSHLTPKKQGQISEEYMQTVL

- % total counts bound (% total counts added) [1]: 12.8
- % total counts bound (% total counts added) [2]: 12.5
- % total counts bound (% total counts added) [3]: 6.1
- % total counts bound (% total counts added) [4]: 6.9
- % total counts bound (% total counts added) [5]: 7.2
- % total counts bound (% total counts added) [6]: 12.3
- % total counts bound (% total counts added) [7]: 12.3
- % total counts bound (% total counts added) [8]: 8.9
- % total counts bound (% total counts added) [9]: 2.7
- % total counts bound (% total counts added) [10]: 3.8
- % total counts bound (% total counts added) [11]: 8
- % total counts bound (% total counts added) [12]: 10.1
- % total counts bound (% total counts added) [13]: 12
- % total counts bound (% total counts added) [14]: 6.1
- % total counts bound (% total counts added) [15]: 7.3
- % total counts bound (% total counts added) [16]: 9.3
- % total counts bound (% total counts added) [17]: 7.9
- % total counts bound (% total counts added) [18]: 4.3
- % total counts bound (% total counts added) [19]: 3.5
- % total counts bound (% total counts added) [20]: 5.3
- % total counts bound (% total counts added) [21]: 7.5
- % total counts bound (% total counts added) [22]: 4.3
- % total counts bound (% total counts added) [23]: 6.3
- % total counts bound (% total counts added) [24]: 11.2
- % total counts bound (% total counts added) [25]: 12.5
- % total counts bound (% total counts added) [26]: 11.5
- mean % total counts bound [27]: 12.2%
- % total counts bound (% total counts added) [28]: 10
- % total counts bound (% total counts added) [29]: 12.3
- % total counts bound (% total counts added) [30]: 4.3
- % total counts bound (% total counts added) [31]: 7.9
- % total counts bound (% total counts added) [32]: 12.4
- % total counts bound (% total counts added) [33]: 4
- % inhibition of TRAb binding [34]: 55.4%
- mean % total counts bound [35]: 12.1%
- % total counts bound (% total counts added) [36]: 7.4
- % total counts bound (% total counts added) [37]: 2.6
- % total counts bound (% total counts added) [38]: 10.8
- % total counts bound (% total counts added) [39]: 7.2
- % total counts bound (% total counts added) [40]: 12.4
- % total counts bound (% total counts added) [41]: 4.8
- % total counts bound (% total counts added) [42]: 7.5
Substance: TSH (thyrotrophin, thyroid stimulating hormone) (ligand)
